The target of test [1] is T1, 人CD20蛋白 (human CD20) (human) (UniProt P11836).
T1 sequence (looked up): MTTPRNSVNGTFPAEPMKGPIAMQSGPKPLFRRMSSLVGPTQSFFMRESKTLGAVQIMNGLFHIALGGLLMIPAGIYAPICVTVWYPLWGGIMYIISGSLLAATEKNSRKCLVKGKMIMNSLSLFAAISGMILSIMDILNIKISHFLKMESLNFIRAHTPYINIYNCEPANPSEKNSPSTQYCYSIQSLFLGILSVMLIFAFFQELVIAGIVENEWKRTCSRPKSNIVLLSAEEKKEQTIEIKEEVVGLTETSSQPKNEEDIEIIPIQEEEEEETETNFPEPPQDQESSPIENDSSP
Kind of test: SPR (Biacore), antibody captured on anti-human capture CM5 chip, antigen as analyte from 10 nM, 1:1 kinetic model. (In general: In SPR one partner is held on a chip, and binding of the other changes the refractive index at the surface.)

Test [2] deals with T1, 人CD20蛋白 (human CD20) (human). In words: indirect ELISA, recombinant human CD20 coated, rabbit anti-human IgG Fc-HRP. (In general: An ELISA detects its analyte on a solid surface through an enzyme-linked reagent.)

For orientation: Kd means the constant that tells how readily two partners part at equilibrium. The low end stands for a tighter complex, the high end for a looser complex. A word on the EC50: it is the concentration giving half of the maximal effect.

B1: 人源化抗体HB12 (humanized anti-CD20 antibody HB12) (antibody, part only; not given: IgG1 and kappa constant regions, human IgG1, V domains shown, part only)
VH: QVQLVQSGSELKKPGASVKVSCKASSYMHAVGMNWVKQAPGQGFEWMGWIYADSGTGGVTYVKGIIPTYAQGFTGRFVFSLDTSVSTAYLQISSLKAEDTATYYCDYYDGLYGMDVYGAGSFWGQGTTVTVSS
As for B1, in test [1], the Kd was found to be 0.0218 nM. Further, in test [2], the EC50 worked out at 0.0256 µg/mL.

For the origin of these results see patent CN111100204A.
